We go through 2 molecules from publication PMC2648313, “Identification of Rhoptry Trafficking Determinants and Evidence for a Novel Sorting Mechanism in the Malaria Parasite Plasmodium falciparum” (PLoS Pathogens, 2009).

Holding throughout (test): pull-down; 100 ug His6-tagged RAP1 recombinant protein immobilised on TALON resin, incubated O/N at 4 C with purified GST-fusion proteins in pull-down buffer (50 mM Na2HPO4, 75 mM NaCl, 0.1% Triton X-100, 5 mM imidazole, pH 7.4); eluted with imidazole; Coomassie gel and immunoblot with anti-GST
Common to all, as to conditions: both partners purified
For orientation: A western blot detects proteins with antibodies after separation by electrophoresis.

In assay [1] the target is T1, RAP1(22-152), recombinant His6-tagged RAP1 protein representing amino acids 22-152 (P. falciparum 3D7, UniProt Q9U429 22-152).
T1 construct: contains the RAP1 rhoptry signal (22-55); Amplified from 3D7 genomic DNA, cloned NcoI/XhoI into pET28b upstream of the His6 tag; not shown: His6, C-terminal, kept
T1 sequence: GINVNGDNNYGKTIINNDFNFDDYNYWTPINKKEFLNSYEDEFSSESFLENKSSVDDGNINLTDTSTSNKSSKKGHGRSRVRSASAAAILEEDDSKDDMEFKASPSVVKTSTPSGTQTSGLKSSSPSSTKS

Assay [2] concerns the target T2, RAP1(22-152) mutant, aspartate 39, 43 and 44 to arginine (P. falciparum 3D7, UniProt Q9U429 22-152, aspartate 39 to arginine | aspartate 43 to arginine | aspartate 44 to arginine).
T2 construct: not shown: His6, C-terminal, kept
T2 sequence: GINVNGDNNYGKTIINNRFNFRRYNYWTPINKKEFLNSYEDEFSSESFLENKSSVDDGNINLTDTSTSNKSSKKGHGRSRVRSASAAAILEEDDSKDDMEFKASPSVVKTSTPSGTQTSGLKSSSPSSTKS

Assay [3] deals with T3, RAP1(22-152) mutant, residues 40, 42 and 45 to glycine (P. falciparum 3D7, UniProt Q9U429 22-152, aromatic residue 40 to glycine | aromatic residue 42 to glycine | aromatic …).
T3 construct: not shown: His6, C-terminal, kept
T3 sequence: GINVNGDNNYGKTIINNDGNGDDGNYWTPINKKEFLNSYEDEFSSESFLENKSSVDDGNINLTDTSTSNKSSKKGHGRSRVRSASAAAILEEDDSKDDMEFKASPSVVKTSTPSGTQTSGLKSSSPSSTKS

The target of assay [4] is T4, RAP1(22-152) mutant, aspartate 39, 43 and 44 to alanine (P. falciparum 3D7, UniProt Q9U429 22-152, aspartate 39 to alanine | aspartate 43 to alanine | aspartate 44 to alanine).
T4 construct: not shown: His6, C-terminal, kept
T4 sequence: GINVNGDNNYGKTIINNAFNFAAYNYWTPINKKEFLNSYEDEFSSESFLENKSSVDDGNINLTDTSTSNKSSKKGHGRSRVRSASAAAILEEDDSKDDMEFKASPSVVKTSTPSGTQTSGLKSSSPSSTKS

B1: RAMAE1, RAMA-GST fusion protein representing amino acids 759-798 (domain or fragment)
chain: DNKFVAHKKREKSISPHSYQKVSTKVQNKENMENKEKKQL
notes: rhoptry associated membrane antigen (RAMA), P. falciparum, amino acids 759-798; Amplified from P. falciparum cDNA and cloned into pGEX-4T-1; source: E. coli BL21 (DE3), purified (glutathione resin)
On to B1, for which, in assay [1], the binding result is “binds”.

B2: RAMAE, RAMA-GST fusion protein representing amino acids 759-840 (domain or fragment)
chain: DNKFVAHKKREKSISPHSYQKVSTKVQNKENMENKEKKQLINDEAAMTAEELVELENTEDVNTPTMVETEEIDFDENGNKSS
notes: rhoptry associated membrane antigen (RAMA), P. falciparum, amino acids 759-840; source: E. coli BL21 (DE3), purified (glutathione resin)
As for B2, the binding result in assay [1], in assay [2], in assay [3] and in assay [4] was “binds” in each case.
